# Test results published in patent US20110256180A1 (CHILDREN S HOSPITAL AND RESEARCH CENTER AT OAKLAND, published 2011).
# Where two headings read alike, the source gives them in different places.
# Legend:
# [1] = biological target: fHbp ID 1 on live bacteria of N. meningitidis group B strain H44/76 (Neisseria meningitidis) (UniProt E6MV22); experiment: cell-based or functional assay
# [2] = biological target: fHbp ID 77, wild-type (strain 8047, variant group 2, modular group VI) (Neisseria meningitidis); experiment: ELISA
# [3] = biological target: fHbp ID 22, wild-type (variant group 2, modular group III) (Neisseria meningitidis); experiment: ELISA
# [4] = biological target: T1, human complement factor H (human, UniProt P08603 19-1231); experiment: ELISA, fHbp on plate
# T1 construct: also called human fH; fH
# T1 sequence (P08603 19-1231 limits assumed): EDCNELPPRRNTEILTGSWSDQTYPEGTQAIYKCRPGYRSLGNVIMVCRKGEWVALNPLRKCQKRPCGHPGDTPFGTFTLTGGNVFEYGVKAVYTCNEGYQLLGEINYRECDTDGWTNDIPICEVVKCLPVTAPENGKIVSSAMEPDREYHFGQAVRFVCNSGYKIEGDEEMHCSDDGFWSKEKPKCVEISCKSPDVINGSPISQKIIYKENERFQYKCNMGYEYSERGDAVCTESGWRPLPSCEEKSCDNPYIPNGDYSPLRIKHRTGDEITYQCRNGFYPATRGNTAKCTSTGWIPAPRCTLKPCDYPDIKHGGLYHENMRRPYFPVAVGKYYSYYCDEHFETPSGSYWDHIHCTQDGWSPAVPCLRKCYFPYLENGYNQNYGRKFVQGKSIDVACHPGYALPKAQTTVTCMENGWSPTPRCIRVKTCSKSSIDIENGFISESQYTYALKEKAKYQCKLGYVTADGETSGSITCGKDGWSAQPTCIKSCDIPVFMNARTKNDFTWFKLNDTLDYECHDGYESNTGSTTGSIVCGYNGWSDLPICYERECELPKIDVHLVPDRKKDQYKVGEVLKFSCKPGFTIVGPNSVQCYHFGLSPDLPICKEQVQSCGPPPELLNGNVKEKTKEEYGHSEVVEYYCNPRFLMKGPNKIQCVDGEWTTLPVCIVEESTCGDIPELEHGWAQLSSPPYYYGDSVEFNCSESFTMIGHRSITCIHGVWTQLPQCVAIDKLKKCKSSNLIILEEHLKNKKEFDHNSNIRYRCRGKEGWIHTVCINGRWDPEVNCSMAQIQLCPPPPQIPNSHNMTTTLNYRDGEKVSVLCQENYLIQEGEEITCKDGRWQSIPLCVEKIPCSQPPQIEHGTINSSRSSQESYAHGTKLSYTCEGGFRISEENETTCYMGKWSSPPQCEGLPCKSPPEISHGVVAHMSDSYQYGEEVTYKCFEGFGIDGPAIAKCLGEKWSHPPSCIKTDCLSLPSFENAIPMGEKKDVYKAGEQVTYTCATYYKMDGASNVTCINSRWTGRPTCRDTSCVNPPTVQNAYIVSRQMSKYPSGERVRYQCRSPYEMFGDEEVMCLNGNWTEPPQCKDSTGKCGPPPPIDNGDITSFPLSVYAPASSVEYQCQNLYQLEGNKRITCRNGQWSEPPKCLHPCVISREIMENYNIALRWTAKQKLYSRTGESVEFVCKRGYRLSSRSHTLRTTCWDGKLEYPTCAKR
# [5] = biological target: T1, human complement factor H; experiment: ELISA, vs respective wildtype fHbp
# [6] = biological target: T1, human complement factor H; experiment: ELISA, vs respective wildtype fHbp; remark: listed apart in the source
# [7] = biological target: T1, human complement factor H; experiment: ELISA
# [8] = biological target: T2, mouse factor H (native fH of wild-type mice) (mouse, UniProt P06909 19-1234); experiment: ELISA, fHbp on plate, mouse serum
# T2 construct: also called mouse fH
# T2 sequence (P06909 19-1234): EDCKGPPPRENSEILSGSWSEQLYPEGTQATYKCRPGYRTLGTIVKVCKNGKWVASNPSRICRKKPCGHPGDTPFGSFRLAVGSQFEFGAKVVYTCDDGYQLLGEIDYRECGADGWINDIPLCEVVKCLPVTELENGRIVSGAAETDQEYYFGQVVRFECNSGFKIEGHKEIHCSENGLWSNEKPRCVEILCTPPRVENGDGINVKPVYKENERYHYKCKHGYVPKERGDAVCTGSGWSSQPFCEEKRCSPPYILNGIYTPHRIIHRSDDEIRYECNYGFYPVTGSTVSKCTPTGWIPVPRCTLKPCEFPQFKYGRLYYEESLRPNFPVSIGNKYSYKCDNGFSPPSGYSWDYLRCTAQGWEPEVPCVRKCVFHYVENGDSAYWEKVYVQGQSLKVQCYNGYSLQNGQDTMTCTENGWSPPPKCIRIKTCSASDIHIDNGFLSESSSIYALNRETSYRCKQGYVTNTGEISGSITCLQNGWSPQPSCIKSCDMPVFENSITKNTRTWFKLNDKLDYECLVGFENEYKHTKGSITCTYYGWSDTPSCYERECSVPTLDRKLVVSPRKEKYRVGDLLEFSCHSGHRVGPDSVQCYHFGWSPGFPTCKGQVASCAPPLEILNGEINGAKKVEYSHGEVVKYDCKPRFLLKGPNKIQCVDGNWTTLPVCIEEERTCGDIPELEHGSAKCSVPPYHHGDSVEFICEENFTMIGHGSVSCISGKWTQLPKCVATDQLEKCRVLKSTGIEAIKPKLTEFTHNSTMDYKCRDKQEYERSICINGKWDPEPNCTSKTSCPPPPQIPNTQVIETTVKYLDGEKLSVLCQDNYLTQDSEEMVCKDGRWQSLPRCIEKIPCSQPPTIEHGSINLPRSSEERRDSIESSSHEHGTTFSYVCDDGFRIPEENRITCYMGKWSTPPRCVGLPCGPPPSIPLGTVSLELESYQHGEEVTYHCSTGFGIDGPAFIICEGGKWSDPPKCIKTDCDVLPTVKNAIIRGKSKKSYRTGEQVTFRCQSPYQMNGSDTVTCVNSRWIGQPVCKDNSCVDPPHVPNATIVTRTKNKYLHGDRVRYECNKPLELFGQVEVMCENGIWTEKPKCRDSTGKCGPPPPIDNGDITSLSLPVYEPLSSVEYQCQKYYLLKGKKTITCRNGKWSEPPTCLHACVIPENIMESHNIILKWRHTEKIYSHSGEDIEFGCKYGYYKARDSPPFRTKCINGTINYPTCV
molecule,measurement,setting,value
human IgG1 mouse chimeric anti-fHbp mAb JAR 3 (from UniProt P01857 1-330; P01834 1-107) (antibody),"Bactericidal Activity (BC50%), fH-repleted complement, mean",[1],15.2 µg/mL
human IgG1 mouse chimeric anti-fHbp mAb502 (from UniProt P01857 1-330; P01834 1-107) (antibody),"Bactericidal Activity (BC50%), fH-depleted complement, mean",[1],1.25 µg/mL
same,"Bactericidal Activity (BC50%), fH-repleted complement, mean",[1],> 100 µg/mL
anti-fHbp monoclonal antibody JAR 4 (murine),percent less binding than to variant 1 fHbp (ID 1),[2],30%
same,percent less binding than to variant 1 fHbp (ID 1),[3],30%
human IgG1 mouse chimeric anti-fHbp mAb JAR 5 (from UniProt P01857 1-330; P01834 1-107) (antibody),"Bactericidal Activity (BC50%), fH-depleted complement, mean",[1],1.25 µg/mL
same,"Bactericidal Activity (BC50%), fH-repleted complement, mean",[1],23.5 µg/mL
fHbp ID 77 R41S/K113A double mutant (other) CSSGGGGVAADIGARLADALTAPLDHKDKSLQSLTLDQSVSKNEKLKLAAQGAEKTYGNGDSLNTGKLKNDKVSRFDFIRQIEVDGQLITLESGEFQIYKQDHSAVVALQIEAINNPDKIDSLINQRSFLVSGLGGEHTAFNQLPDGKAEYHGKAFSSDDAGGKLTYTIDFAAKQGHGKIEHLKTPEQNVELAAAELKADEKSHAVILGDTRYGSEEKGTYHLALFGDRAQEIAGSATVKIGEKVHEIGIAGKQ,fold less binding to fH than wildtype fHbp ID 77,[4],~10 fold
same,Fold-Decrease in fH binding,[5],> 10 fold
fHbp ID 77 R41S/K119A double mutant (other) CSSGGGGVAADIGARLADALTAPLDHKDKSLQSLTLDQSVSKNEKLKLAAQGAEKTYGNGDSLNTGKLKNDKVSRFDFIRQIEVDGQLITLESGEFQIYKQDHSAVVALQIEKINNPDAIDSLINQRSFLVSGLGGEHTAFNQLPDGKAEYHGKAFSSDDAGGKLTYTIDFAAKQGHGKIEHLKTPEQNVELAAAELKADEKSHAVILGDTRYGSEEKGTYHLALFGDRAQEIAGSATVKIGEKVHEIGIAGKQ,fold decrease in fH binding,[4],~5 fold
same,Fold-Decrease in fH binding,[5],> 5 fold
fHbp ID 77 R41S/K113A/D121A triple mutant (other) CSSGGGGVAADIGARLADALTAPLDHKDKSLQSLTLDQSVSKNEKLKLAAQGAEKTYGNGDSLNTGKLKNDKVSRFDFIRQIEVDGQLITLESGEFQIYKQDHSAVVALQIEAINNPDKIASLINQRSFLVSGLGGEHTAFNQLPDGKAEYHGKAFSSDDAGGKLTYTIDFAAKQGHGKIEHLKTPEQNVELAAAELKADEKSHAVILGDTRYGSEEKGTYHLALFGDRAQEIAGSATVKIGEKVHEIGIAGKQ,binding result,[4],no binding
same,Fold-Decrease in fH binding,[5],> 50 fold
"fHbp ID 15, wild-type (natural chimera, modular group IV) (other, Recombinant; also called Pep 15 WT; peptide 15) CSSGGGGSGGGGVAADIGAGLADALTAPLDHKDKGLKSLTLEDSISQNGTLTLSAQGAERTFKAGDKDNSLNTGKLKNDKISRFDFIRQIEVDGQLITLESGEFQVYKQSHSALTALQTEQVQDSEHSGKMVAKRQFRIGDIVGEHTSFGKLPKDVMATYRGTAFGSDDAGGKLTYTIDFAAKQGHGKIEHLKSPELNVDLAAADIKPDEKHHAVISGSVLYNQAEKGSYSLGIFGGQAQEVAGSAEVETANGIRHIGLAAKQ",Fold-Decrease in fH binding,[6],0 fold
same,Fold-Decrease in fH binding,[5],0 fold
fHbp ID 28 K199A mutant (other) CSSGGGGSGGGGVAADIGTGLADALTAPLDHKDKGLKSLTLEDSIPQNGTLTLSAQGAEKTFKAGDKDNSLNTGKLKNDKISRFDFVQKIEVDGQTITLASGEFQIYKQNHSAVVALQIEKINNPDKTDSLINQRSFLVSGLGGEHTAFNQLPGGKAEYHGKAFSSDDPNGRLHYSIDFTKKQGYGRIEHLKTLEQNVELAAAELAADEKSHAVILGDTRYGSEEKGTYHLALFGDRAQEIAGSATVKIGEKVHEIGIAGKQ,binding result,[7],binds
"fHbp ID 1, wild-type recombinant factor H binding protein (strain MC58, variant 1, modular group I) (other, also called WT fHbp ID 1; Pep1) CSSGGGGVAADIGAGLADALTAPLDHKDKGLQSLTLDQSVRKNEKLKLAAQGAEKTYGNGDSLNTGKLKNDKVSRFDFIRQIEVDGQLITLESGEFQVYKQSHSALTAFQTEQIQDSEHSGKMVAKRQFRIGDIAGEHTSFDKLPEGGRATYRGTAFGSDDAGGKLTYTIDFAAKQGNGKIEHLKSPELNVDLAAADIKPDGKRHAVISGSVLYNQAEKGSYSLGIFGGKAQEVAGSAEVKTVNGIRHIGLAAKQ",binding result,[8],no binding (tested: 1:100 dilution of serum)
